Measurements: US20180250358A1, “GHRH AGONISTS FOR THE TREATMENT OF ISCHEMIC DISORDERS” (published 2018)
Read-outs that look alike come from different tables or passages of the source. Non-standard residues stand in square brackets, D forms with d. No end group written: not given here. *: point of attachment. NMeY = CN[C@@H](Cc1ccc(O)cc1)C(=O)O; Agmatine = N=C(N)NCCCCN*; Nle = CCCC[C@H](N)C(=O)O; Orn = NCCC[C@H](N)C(=O)O; Abu = CC[C@H](N)C(=O)O

Legend:
[1] = target: T1, GHRH receptor of rat pituitary cells (rat, UniProt Q02644); test: cell-based or functional assay
T1 sequence: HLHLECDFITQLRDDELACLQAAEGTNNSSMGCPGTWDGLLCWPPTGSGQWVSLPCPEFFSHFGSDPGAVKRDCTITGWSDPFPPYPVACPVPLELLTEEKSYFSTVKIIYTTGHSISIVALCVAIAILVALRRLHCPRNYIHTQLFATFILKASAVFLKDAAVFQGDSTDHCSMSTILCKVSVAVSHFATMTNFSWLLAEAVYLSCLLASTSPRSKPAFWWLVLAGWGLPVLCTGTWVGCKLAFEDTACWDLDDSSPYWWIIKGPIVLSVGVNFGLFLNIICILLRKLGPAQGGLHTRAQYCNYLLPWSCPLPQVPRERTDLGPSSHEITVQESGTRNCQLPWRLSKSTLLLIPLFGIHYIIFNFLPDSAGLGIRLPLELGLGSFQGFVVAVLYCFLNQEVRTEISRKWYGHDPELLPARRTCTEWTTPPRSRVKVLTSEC

[2] = target: T2, GHRH receptor of human pituitary membranes (human, UniProt Q02643); test: competition vs 125I-JV-1-42, human pituitary membranes
T2 sequence: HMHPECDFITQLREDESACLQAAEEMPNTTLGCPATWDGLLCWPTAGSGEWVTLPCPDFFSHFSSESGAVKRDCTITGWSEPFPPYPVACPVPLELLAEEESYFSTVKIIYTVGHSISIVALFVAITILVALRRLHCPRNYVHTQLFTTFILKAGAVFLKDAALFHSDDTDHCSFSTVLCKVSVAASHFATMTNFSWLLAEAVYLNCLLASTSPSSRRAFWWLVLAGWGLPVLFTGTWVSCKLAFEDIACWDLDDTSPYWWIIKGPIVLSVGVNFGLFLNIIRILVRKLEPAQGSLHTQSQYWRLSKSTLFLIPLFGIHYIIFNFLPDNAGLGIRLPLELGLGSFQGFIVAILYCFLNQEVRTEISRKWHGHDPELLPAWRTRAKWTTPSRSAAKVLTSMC
Description: Normal human pituitaries were purchased from the National Hormone and Peptide Program (A.F. Parlow, Los Angeles, County Harbor-UCLA Medical Center, Torrance, Calif.).

[3] = target: T2, GHRH receptor of human pituitary …; test: competition vs 125I-[His1,Nle27]hGHRH(1-32)NH2, human pituitary membranes
Description: Normal human pituitary was purchased from the National Hormone and Peptide Program (UCLA Medical Center, Torrance, Calif.).

[4] = target: T2, GHRH receptor of human pituitary …; test: competition vs 125I-JV-1-42, human pituitary membranes; remark: listed apart in the source
Description: The final binding affinities were expressed as IC₅₀ values and were calculated by using the LIGAND PC computerized curve-fitting program of Munson and Rodbard as modified by McPherson.

[5] = target: T2, GHRH receptor of human pituitary …; test: competition vs 125I-[His1,Nle27]hGHRH(1-32)NH2, human pituitary membranes; remark: listed apart in the source

## [NMeY]ADAIFTQSYR[Orn]VL[Abu]QLSAR[Orn]LLQDI[Nle]D[Agmatine] [P-20356 [N-Me-Tyr^1, Gln^8, Orn^12, Abu^15, Orn^21, Nle^27, Asp^28, Agm^29]hGHRH(1-29)NH2]
[1]
  GH-releasing potency in vitro relative to JI-38, superfused rat pituitary cells: ~3 fold vs JI-38
[2]
  IC50: 0.27 nM
  relative affinity (binding potency) vs JI-38: 16.1 vs JI-38=1
[3]
  relative affinity (binding potency) compared to JI-38: 2.69 vs JI-38=1
  relative affinity (binding potency) compared to hGHRH(1-29): 7.5 vs hGHRH(1-29)NH2=1
[4]
  IC50: 0.01 nM
  relative affinity (binding potency) vs GHRH: 406 vs GHRH(1-29)=1
  relative affinity (binding potency) vs JI-38: 171 vs JI-38=1
[5]
  fold increase in GHRH receptor binding affinity vs JI-38: 2.7 fold vs JI-38
